Measured values published in patent publication US20150344570A1 (published 2015).

Target: T1, FcγRIIa R (extracellular domain, His tag at the C terminus) (human, UniProt P12318 34-217)
T1 construct: extracellular domain; Soluble analyte in Biacore; also called FcgRIIa R type; 2aR
T1 sequence (looked up): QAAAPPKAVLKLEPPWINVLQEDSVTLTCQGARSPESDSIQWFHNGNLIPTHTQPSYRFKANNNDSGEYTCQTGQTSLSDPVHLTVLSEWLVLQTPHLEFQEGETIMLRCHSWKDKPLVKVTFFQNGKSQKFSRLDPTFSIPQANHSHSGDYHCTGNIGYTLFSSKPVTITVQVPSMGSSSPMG
Assay: SPR (Biacore), relative binding, control GpH7-B3/GpL16-k0 = 100
Protocol: Analysis of interaction between objective antibody and the FcγR was carried out using Biacore T100 (GE Healthcare). HBS-EP+ (GE Healthcare) was used as the running buffer, and the measurement temperature was set to 25° C. Chips produced by immobilizing the antigen peptide by the amine coupling method to a Series S Sencor Chip CM5 (GE Healthcare), or alternatively, chips produced by allowing preliminarily biotinylated antigen peptides to interact with and immobilize onto a Series S Sensor Chip SA (certified) (GE Healthcare) were used. Antibodies of interest were captured onto an antigen peptide-immobilized chip, and allowed to interact to each FcγR diluted with running buffer. To regenerate and repeatedly use the chip, the antibodies captured on the chip were washed off by reacting 10 mM glycine-HCl, pH 1.5.

B1: GpH7-B3 variant H268_13S/GpL16-k0 (antibody, human IgG1, kappa)
heavy: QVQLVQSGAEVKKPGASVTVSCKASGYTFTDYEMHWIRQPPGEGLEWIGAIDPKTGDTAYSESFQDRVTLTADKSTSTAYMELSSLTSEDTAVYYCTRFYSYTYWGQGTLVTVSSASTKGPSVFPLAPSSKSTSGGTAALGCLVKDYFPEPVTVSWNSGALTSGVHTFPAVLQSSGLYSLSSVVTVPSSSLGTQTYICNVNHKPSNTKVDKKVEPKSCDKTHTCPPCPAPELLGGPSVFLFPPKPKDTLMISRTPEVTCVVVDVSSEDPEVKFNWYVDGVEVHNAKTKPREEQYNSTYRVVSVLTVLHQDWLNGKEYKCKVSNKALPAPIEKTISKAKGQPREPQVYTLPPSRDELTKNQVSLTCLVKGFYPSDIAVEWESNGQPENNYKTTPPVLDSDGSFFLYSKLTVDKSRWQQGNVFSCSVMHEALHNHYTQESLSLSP
light: DIVMTQSPLSLPVTPGEPASISCQASESLVHSNRNTYLHWYLQKPGQSPQLLIYKVSNRFSGVPDRFSGSGSGTDFTLKISRVEAEDVGVYYCSQNTHVPPTFGQGTKVEIERTVAAPSVFIFPPSDEQLKSGTASVVCLLNNFYPREAKVQWKVDNALQSGNSQESVTEQDSKDSTYSLSSTLTLSKADYEKHKVYACEVTHQGLSSPVTKSFNRGEC
notes: homodimerized; also called Ho Ab
Ho/Con_2aR: 135 % of control

B2: GpH7-B3 variant L328_07I/GpL16-k0 (antibody, human IgG1, kappa)
heavy: not shown
light: B1 light
notes: as for B1
Ho/Con_2aR: 140 % of control

B3: GpH7-B3 variant I332_10E/GpL16-k0 (antibody, human IgG1, kappa)
heavy: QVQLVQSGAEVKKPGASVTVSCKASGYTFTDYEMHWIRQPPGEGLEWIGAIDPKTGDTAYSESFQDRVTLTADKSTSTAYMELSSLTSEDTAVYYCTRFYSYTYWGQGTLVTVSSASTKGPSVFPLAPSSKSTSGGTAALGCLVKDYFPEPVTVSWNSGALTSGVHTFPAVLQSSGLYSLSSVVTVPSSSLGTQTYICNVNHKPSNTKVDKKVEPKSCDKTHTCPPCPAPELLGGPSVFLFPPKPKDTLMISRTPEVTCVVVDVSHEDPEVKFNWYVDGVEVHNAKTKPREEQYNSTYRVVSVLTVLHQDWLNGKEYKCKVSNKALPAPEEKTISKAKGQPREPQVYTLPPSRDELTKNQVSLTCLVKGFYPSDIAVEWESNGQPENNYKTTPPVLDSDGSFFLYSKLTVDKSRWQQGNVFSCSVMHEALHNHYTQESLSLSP
light: B1 light
notes: as for B1
Ho/Con_2aR: 123 % of control

B4: GpH7-B3 variant K334_16H/GpL16-k0 (antibody, human IgG1, kappa)
heavy: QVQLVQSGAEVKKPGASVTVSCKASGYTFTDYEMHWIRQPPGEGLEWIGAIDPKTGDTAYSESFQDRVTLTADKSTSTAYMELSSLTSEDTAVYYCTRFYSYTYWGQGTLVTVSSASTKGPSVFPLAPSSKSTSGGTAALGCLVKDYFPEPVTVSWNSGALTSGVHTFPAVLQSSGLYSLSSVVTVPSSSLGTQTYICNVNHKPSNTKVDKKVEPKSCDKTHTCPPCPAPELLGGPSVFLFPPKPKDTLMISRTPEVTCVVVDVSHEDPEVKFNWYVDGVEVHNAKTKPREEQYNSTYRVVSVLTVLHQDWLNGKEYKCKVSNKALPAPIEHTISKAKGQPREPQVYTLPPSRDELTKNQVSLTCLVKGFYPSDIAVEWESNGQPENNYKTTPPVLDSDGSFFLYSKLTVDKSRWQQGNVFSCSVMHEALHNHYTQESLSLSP
light: B1 light
notes: as for B1
Ho/Con_2aR: 111 % of control

B5: GpH7-B3 variant L328_06M/GpL16-k0 (antibody, human IgG1, kappa)
heavy: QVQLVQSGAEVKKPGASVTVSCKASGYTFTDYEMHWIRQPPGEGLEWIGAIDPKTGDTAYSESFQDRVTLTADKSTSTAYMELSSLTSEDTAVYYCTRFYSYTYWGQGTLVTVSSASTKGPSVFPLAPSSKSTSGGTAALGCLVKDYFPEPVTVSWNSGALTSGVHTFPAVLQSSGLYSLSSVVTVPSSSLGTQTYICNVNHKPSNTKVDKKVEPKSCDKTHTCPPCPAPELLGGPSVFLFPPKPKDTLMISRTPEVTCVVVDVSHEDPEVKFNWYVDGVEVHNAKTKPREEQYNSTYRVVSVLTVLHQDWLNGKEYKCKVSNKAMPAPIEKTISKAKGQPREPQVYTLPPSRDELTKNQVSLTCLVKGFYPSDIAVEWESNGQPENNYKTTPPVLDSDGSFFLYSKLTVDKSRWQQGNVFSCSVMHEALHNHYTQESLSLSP
light: B1 light
notes: as for B1
Ho/Con_2aR: 124 % of control

B6: GpH7-B3 variant K334_18N/GpL16-k0 (antibody, human IgG1, kappa)
heavy: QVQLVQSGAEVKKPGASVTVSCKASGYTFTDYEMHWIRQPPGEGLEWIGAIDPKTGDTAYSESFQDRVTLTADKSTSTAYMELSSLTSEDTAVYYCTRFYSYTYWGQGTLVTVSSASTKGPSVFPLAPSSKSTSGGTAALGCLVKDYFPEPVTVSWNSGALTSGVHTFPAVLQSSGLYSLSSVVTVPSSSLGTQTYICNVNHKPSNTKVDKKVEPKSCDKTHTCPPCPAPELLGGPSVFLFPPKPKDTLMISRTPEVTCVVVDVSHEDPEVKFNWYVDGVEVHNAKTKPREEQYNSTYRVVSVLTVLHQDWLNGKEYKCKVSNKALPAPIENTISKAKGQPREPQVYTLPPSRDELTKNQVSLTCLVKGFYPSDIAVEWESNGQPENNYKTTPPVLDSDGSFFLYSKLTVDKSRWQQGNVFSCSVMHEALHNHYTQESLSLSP
light: B1 light
notes: as for B1
Ho/Con_2aR: 113 % of control

B7: GpH7-B3 variant K326_19Q/GpL16-k0 (antibody, human IgG1, kappa)
heavy: not shown
light: B1 light
notes: as for B1
Ho/Con_2aR: 137 % of control

B8: GpH7-B3 variant K334_15Y/GpL16-k0 (antibody, human IgG1, kappa)
heavy: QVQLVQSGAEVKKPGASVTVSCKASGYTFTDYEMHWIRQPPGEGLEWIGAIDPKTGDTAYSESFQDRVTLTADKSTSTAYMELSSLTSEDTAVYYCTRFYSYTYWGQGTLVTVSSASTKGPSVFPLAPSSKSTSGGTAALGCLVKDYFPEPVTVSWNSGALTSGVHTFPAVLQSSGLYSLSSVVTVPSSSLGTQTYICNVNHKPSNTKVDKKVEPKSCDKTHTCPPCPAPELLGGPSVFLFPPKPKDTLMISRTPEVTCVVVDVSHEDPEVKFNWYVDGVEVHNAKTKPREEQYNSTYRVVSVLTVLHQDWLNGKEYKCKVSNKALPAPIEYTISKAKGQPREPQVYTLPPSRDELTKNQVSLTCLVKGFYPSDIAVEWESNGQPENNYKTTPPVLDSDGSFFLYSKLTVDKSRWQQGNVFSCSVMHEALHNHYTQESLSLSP
light: B1 light
notes: as for B1
Ho/Con_2aR: 112 % of control

B9: GpH7-B3 variant K334_03V/GpL16-k0 (antibody, human IgG1, kappa)
heavy: not shown
light: B1 light
notes: as for B1
Ho/Con_2aR: 123 % of control

B10: GpH7-B3 variant K326_06M/GpL16-k0 (antibody, human IgG1, kappa)
heavy: not shown
light: B1 light
notes: as for B1
Ho/Con_2aR: 143 % of control

B11: GpH7-B3 variant K334_14T/GpL16-k0 (antibody, human IgG1, kappa)
heavy: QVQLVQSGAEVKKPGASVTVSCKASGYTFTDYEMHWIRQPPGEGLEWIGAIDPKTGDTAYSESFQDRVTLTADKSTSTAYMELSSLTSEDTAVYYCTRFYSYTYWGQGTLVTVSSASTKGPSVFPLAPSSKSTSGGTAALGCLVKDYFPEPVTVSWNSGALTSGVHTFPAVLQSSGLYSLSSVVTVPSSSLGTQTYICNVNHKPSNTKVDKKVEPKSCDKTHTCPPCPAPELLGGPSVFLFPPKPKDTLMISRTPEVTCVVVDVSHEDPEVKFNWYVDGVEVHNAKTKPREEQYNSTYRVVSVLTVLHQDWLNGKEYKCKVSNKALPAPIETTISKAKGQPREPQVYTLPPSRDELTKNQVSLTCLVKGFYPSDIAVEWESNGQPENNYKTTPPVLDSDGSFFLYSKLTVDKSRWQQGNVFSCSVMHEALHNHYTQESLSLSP
light: B1 light
notes: as for B1
Ho/Con_2aR: 117 % of control

B12: GpH7-B3 variant K334_07I/GpL16-k0 (antibody, human IgG1, kappa)
heavy: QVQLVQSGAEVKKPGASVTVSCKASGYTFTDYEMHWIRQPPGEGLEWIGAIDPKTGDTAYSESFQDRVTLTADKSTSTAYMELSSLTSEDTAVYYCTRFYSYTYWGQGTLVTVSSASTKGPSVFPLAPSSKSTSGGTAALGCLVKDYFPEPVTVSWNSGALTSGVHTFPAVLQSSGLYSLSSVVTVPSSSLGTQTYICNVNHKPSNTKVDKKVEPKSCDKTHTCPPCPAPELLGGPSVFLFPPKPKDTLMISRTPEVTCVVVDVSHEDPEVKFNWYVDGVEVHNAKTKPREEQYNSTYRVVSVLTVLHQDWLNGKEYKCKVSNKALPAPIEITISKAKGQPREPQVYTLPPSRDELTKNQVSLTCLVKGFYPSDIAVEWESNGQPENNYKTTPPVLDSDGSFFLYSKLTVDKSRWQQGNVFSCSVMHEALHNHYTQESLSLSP
light: B1 light
notes: as for B1
Ho/Con_2aR: 121 % of control

B13: GpH7-B3 variant I332_15Y/GpL16-k0 (antibody, human IgG1, kappa)
heavy: not shown
light: B1 light
notes: as for B1
Ho/Con_2aR: 111 % of control

B14: GpH7-B3 variant K326_10E/GpL16-k0 (antibody, human IgG1, kappa)
heavy: not shown
light: B1 light
notes: as for B1
Ho/Con_2aR: 156 % of control

B15: GpH7-B3 variant L328_04F/GpL16-k0 (antibody, human IgG1, kappa)
heavy: not shown
light: B1 light
notes: as for B1
Ho/Con_2aR: 145 % of control

B16: GpH7-B3 variant K326_09D/GpL16-k0 (antibody, human IgG1, kappa)
heavy: not shown
light: B1 light
notes: as for B1
Ho/Con_2aR: 158 % of control

B17: GpH7-B3 variant K326_16H/GpL16-k0 (antibody, human IgG1, kappa)
heavy: not shown
light: B1 light
notes: as for B1
Ho/Con_2aR: 123 % of control

B18: GpH7-B3 variant I332_09D/GpL16-k0 (antibody, human IgG1, kappa)
heavy: not shown
light: B1 light
notes: as for B1
Ho/Con_2aR: 127 % of control

B19: GpH7-B3 variant K326_14T/GpL16-k0 (antibody, human IgG1, kappa)
heavy: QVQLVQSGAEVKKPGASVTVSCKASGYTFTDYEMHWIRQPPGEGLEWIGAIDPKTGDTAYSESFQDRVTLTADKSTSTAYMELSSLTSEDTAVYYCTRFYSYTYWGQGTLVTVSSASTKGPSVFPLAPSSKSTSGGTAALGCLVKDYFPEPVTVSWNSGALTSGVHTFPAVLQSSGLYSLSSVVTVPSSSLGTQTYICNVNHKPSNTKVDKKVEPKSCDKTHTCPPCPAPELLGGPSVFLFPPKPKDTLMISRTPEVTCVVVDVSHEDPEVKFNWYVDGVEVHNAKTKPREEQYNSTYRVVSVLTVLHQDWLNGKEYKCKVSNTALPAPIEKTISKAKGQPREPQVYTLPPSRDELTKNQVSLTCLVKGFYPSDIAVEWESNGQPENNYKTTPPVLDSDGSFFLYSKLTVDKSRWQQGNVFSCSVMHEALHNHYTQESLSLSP
light: B1 light
notes: as for B1
Ho/Con_2aR: 141 % of control

B20: GpH7-B3 variant I332_04F/GpL16-k0 (antibody, human IgG1, kappa)
heavy: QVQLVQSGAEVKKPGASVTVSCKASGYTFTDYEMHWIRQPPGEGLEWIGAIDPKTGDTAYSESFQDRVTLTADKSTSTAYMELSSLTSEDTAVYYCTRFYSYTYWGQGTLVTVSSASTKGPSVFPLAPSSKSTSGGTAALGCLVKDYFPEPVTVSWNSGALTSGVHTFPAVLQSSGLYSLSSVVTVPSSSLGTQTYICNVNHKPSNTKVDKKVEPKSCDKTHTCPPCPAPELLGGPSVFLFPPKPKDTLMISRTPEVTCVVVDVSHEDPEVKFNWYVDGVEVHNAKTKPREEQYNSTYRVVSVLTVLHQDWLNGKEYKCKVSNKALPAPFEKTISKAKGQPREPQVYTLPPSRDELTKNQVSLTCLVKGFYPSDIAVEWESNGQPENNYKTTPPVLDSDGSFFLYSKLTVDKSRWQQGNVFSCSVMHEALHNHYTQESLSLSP
light: B1 light
notes: as for B1
Ho/Con_2aR: 109 % of control

B21: GpH7-B3 variant H268_18N/GpL16-k0 (antibody, human IgG1, kappa)
heavy: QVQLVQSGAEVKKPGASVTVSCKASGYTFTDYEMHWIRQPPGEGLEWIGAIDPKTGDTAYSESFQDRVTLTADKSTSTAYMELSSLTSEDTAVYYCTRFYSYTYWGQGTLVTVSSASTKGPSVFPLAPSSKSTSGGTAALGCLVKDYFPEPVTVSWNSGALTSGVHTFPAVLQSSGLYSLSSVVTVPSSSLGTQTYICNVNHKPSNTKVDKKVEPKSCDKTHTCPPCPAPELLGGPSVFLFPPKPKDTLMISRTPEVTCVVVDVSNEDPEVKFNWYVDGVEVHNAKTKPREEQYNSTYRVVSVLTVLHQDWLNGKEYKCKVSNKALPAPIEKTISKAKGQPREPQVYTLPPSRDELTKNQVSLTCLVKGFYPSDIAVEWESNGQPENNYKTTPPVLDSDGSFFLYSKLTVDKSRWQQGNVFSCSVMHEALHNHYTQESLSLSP
light: B1 light
notes: as for B1
Ho/Con_2aR: 134 % of control

B22: GpH7-B3 variant L328_03V/GpL16-k0 (antibody, human IgG1, kappa)
heavy: not shown
light: B1 light
notes: as for B1
Ho/Con_2aR: 116 % of control

B23: GpH7-B3 variant L328_15Y/GpL16-k0 (antibody, human IgG1, kappa)
heavy: not shown
light: B1 light
notes: as for B1
Ho/Con_2aR: 157 % of control
